# Data as given in patent US8748182B2, “Mutant proteins and methods for producing them” (Heptares Therapeutics Limited, priority 2007, dated 2014).
# B1: V239A: A2aR point mutant (protein, UniProt P29274 1-412, looked up, variant V239A)
# Adenosine receptor A2a: MPIMGSSVYITVELAIAVLAILGNVLVCWAVWLNSNLQNVTNYFVVSLAAADIAVGVLAIPFAITISTGFCAACHGCLFIACFVLVLTQSSIFSLLAIAIDRYIAIRIPLRYNGLVTGTRAKGIIAICWVLSFAIGLTPMLGWNNCGQPKEGKNHSQGCGEGQVACLFEDVVPMNYMVYFNFFACVLVPLLLMLGVYLRIFLAARRQLKQMESQPLPGERARSTLQKEVHAAKSLAIIAGLFALCWLPLHIINCFTFFCPDCSHAPLWLMYLAIVLSHTNSVVNPFIYAYRIREFRQTFRKIIRSHVLRQQEPFKAAGTSARVLAAHGSDGEQVSLRLNGHPPGVWANGSAPHPERRPNGYALGLVSGGSAQESQGNTGLPDVELLSHELKGVCPEPPGLDDPLAQDGAGVS
# B2: Rant 5: A2aR with A54L/T88A/V239A (protein, UniProt P29274 1-412, looked up, variant A54L T88A V239A)
# Adenosine receptor A2a: MPIMGSSVYITVELAIAVLAILGNVLVCWAVWLNSNLQNVTNYFVVSLAAADILVGVLAIPFAITISTGFCAACHGCLFIACFVLVLAQSSIFSLLAIAIDRYIAIRIPLRYNGLVTGTRAKGIIAICWVLSFAIGLTPMLGWNNCGQPKEGKNHSQGCGEGQVACLFEDVVPMNYMVYFNFFACVLVPLLLMLGVYLRIFLAARRQLKQMESQPLPGERARSTLQKEVHAAKSLAIIAGLFALCWLPLHIINCFTFFCPDCSHAPLWLMYLAIVLSHTNSVVNPFIYAYRIREFRQTFRKIIRSHVLRQQEPFKAAGTSARVLAAHGSDGEQVSLRLNGHPPGVWANGSAPHPERRPNGYALGLVSGGSAQESQGNTGLPDVELLSHELKGVCPEPPGLDDPLAQDGAGVS
# B3: Rant17: A2aR with A54L+K122A+L235A (protein, UniProt P29274 1-412, looked up, variant A54L K122A L235A)
# Adenosine receptor A2a: MPIMGSSVYITVELAIAVLAILGNVLVCWAVWLNSNLQNVTNYFVVSLAAADILVGVLAIPFAITISTGFCAACHGCLFIACFVLVLTQSSIFSLLAIAIDRYIAIRIPLRYNGLVTGTRAAGIIAICWVLSFAIGLTPMLGWNNCGQPKEGKNHSQGCGEGQVACLFEDVVPMNYMVYFNFFACVLVPLLLMLGVYLRIFLAARRQLKQMESQPLPGERARSTLQKEVHAAKSAAIIVGLFALCWLPLHIINCFTFFCPDCSHAPLWLMYLAIVLSHTNSVVNPFIYAYRIREFRQTFRKIIRSHVLRQQEPFKAAGTSARVLAAHGSDGEQVSLRLNGHPPGVWANGSAPHPERRPNGYALGLVSGGSAQESQGNTGLPDVELLSHELKGVCPEPPGLDDPLAQDGAGVS
# B4: L208A: A2aR point mutant (protein, UniProt P29274 1-412, looked up, variant L208A)
# Adenosine receptor A2a: MPIMGSSVYITVELAIAVLAILGNVLVCWAVWLNSNLQNVTNYFVVSLAAADIAVGVLAIPFAITISTGFCAACHGCLFIACFVLVLTQSSIFSLLAIAIDRYIAIRIPLRYNGLVTGTRAKGIIAICWVLSFAIGLTPMLGWNNCGQPKEGKNHSQGCGEGQVACLFEDVVPMNYMVYFNFFACVLVPLLLMLGVYLRIFLAARRQAKQMESQPLPGERARSTLQKEVHAAKSLAIIVGLFALCWLPLHIINCFTFFCPDCSHAPLWLMYLAIVLSHTNSVVNPFIYAYRIREFRQTFRKIIRSHVLRQQEPFKAAGTSARVLAAHGSDGEQVSLRLNGHPPGVWANGSAPHPERRPNGYALGLVSGGSAQESQGNTGLPDVELLSHELKGVCPEPPGLDDPLAQDGAGVS
# B5: A203L: A2aR point mutant (protein, UniProt P29274 1-412, looked up, variant A203L)
# Adenosine receptor A2a: MPIMGSSVYITVELAIAVLAILGNVLVCWAVWLNSNLQNVTNYFVVSLAAADIAVGVLAIPFAITISTGFCAACHGCLFIACFVLVLTQSSIFSLLAIAIDRYIAIRIPLRYNGLVTGTRAKGIIAICWVLSFAIGLTPMLGWNNCGQPKEGKNHSQGCGEGQVACLFEDVVPMNYMVYFNFFACVLVPLLLMLGVYLRIFLLARRQLKQMESQPLPGERARSTLQKEVHAAKSLAIIVGLFALCWLPLHIINCFTFFCPDCSHAPLWLMYLAIVLSHTNSVVNPFIYAYRIREFRQTFRKIIRSHVLRQQEPFKAAGTSARVLAAHGSDGEQVSLRLNGHPPGVWANGSAPHPERRPNGYALGLVSGGSAQESQGNTGLPDVELLSHELKGVCPEPPGLDDPLAQDGAGVS
# B6: Q210A: A2aR point mutant (protein, UniProt P29274 1-412, looked up, variant Q210A)
# Adenosine receptor A2a: MPIMGSSVYITVELAIAVLAILGNVLVCWAVWLNSNLQNVTNYFVVSLAAADIAVGVLAIPFAITISTGFCAACHGCLFIACFVLVLTQSSIFSLLAIAIDRYIAIRIPLRYNGLVTGTRAKGIIAICWVLSFAIGLTPMLGWNNCGQPKEGKNHSQGCGEGQVACLFEDVVPMNYMVYFNFFACVLVPLLLMLGVYLRIFLAARRQLKAMESQPLPGERARSTLQKEVHAAKSLAIIVGLFALCWLPLHIINCFTFFCPDCSHAPLWLMYLAIVLSHTNSVVNPFIYAYRIREFRQTFRKIIRSHVLRQQEPFKAAGTSARVLAAHGSDGEQVSLRLNGHPPGVWANGSAPHPERRPNGYALGLVSGGSAQESQGNTGLPDVELLSHELKGVCPEPPGLDDPLAQDGAGVS
# B7: Rag 1: A2aR with A184L/R199A/L272A (protein, UniProt P29274 1-412, looked up, variant A184L R199A L272A)
# Adenosine receptor A2a: MPIMGSSVYITVELAIAVLAILGNVLVCWAVWLNSNLQNVTNYFVVSLAAADIAVGVLAIPFAITISTGFCAACHGCLFIACFVLVLTQSSIFSLLAIAIDRYIAIRIPLRYNGLVTGTRAKGIIAICWVLSFAIGLTPMLGWNNCGQPKEGKNHSQGCGEGQVACLFEDVVPMNYMVYFNFFLCVLVPLLLMLGVYLAIFLAARRQLKQMESQPLPGERARSTLQKEVHAAKSLAIIVGLFALCWLPLHIINCFTFFCPDCSHAPLWLMYAAIVLSHTNSVVNPFIYAYRIREFRQTFRKIIRSHVLRQQEPFKAAGTSARVLAAHGSDGEQVSLRLNGHPPGVWANGSAPHPERRPNGYALGLVSGGSAQESQGNTGLPDVELLSHELKGVCPEPPGLDDPLAQDGAGVS
# B8: Rant19: A2aR with A54L, T88A, V239A+A204L (protein, UniProt P29274 1-412, looked up, variant A54L T88A V239A A204L)
# Adenosine receptor A2a: MPIMGSSVYITVELAIAVLAILGNVLVCWAVWLNSNLQNVTNYFVVSLAAADILVGVLAIPFAITISTGFCAACHGCLFIACFVLVLAQSSIFSLLAIAIDRYIAIRIPLRYNGLVTGTRAKGIIAICWVLSFAIGLTPMLGWNNCGQPKEGKNHSQGCGEGQVACLFEDVVPMNYMVYFNFFACVLVPLLLMLGVYLRIFLALRRQLKQMESQPLPGERARSTLQKEVHAAKSLAIIAGLFALCWLPLHIINCFTFFCPDCSHAPLWLMYLAIVLSHTNSVVNPFIYAYRIREFRQTFRKIIRSHVLRQQEPFKAAGTSARVLAAHGSDGEQVSLRLNGHPPGVWANGSAPHPERRPNGYALGLVSGGSAQESQGNTGLPDVELLSHELKGVCPEPPGLDDPLAQDGAGVS
# B9: A184L: A2aR point mutant (protein, UniProt P29274 1-412, looked up, variant A184L)
# Adenosine receptor A2a: MPIMGSSVYITVELAIAVLAILGNVLVCWAVWLNSNLQNVTNYFVVSLAAADIAVGVLAIPFAITISTGFCAACHGCLFIACFVLVLTQSSIFSLLAIAIDRYIAIRIPLRYNGLVTGTRAKGIIAICWVLSFAIGLTPMLGWNNCGQPKEGKNHSQGCGEGQVACLFEDVVPMNYMVYFNFFLCVLVPLLLMLGVYLRIFLAARRQLKQMESQPLPGERARSTLQKEVHAAKSLAIIVGLFALCWLPLHIINCFTFFCPDCSHAPLWLMYLAIVLSHTNSVVNPFIYAYRIREFRQTFRKIIRSHVLRQQEPFKAAGTSARVLAAHGSDGEQVSLRLNGHPPGVWANGSAPHPERRPNGYALGLVSGGSAQESQGNTGLPDVELLSHELKGVCPEPPGLDDPLAQDGAGVS
# B10: R199A: A2aR point mutant (protein, UniProt P29274 1-412, looked up, variant R199A)
# Adenosine receptor A2a: MPIMGSSVYITVELAIAVLAILGNVLVCWAVWLNSNLQNVTNYFVVSLAAADIAVGVLAIPFAITISTGFCAACHGCLFIACFVLVLTQSSIFSLLAIAIDRYIAIRIPLRYNGLVTGTRAKGIIAICWVLSFAIGLTPMLGWNNCGQPKEGKNHSQGCGEGQVACLFEDVVPMNYMVYFNFFACVLVPLLLMLGVYLAIFLAARRQLKQMESQPLPGERARSTLQKEVHAAKSLAIIVGLFALCWLPLHIINCFTFFCPDCSHAPLWLMYLAIVLSHTNSVVNPFIYAYRIREFRQTFRKIIRSHVLRQQEPFKAAGTSARVLAAHGSDGEQVSLRLNGHPPGVWANGSAPHPERRPNGYALGLVSGGSAQESQGNTGLPDVELLSHELKGVCPEPPGLDDPLAQDGAGVS
# B11: S213A: A2aR point mutant (protein, UniProt P29274 1-412, looked up, variant S213A)
# Adenosine receptor A2a: MPIMGSSVYITVELAIAVLAILGNVLVCWAVWLNSNLQNVTNYFVVSLAAADIAVGVLAIPFAITISTGFCAACHGCLFIACFVLVLTQSSIFSLLAIAIDRYIAIRIPLRYNGLVTGTRAKGIIAICWVLSFAIGLTPMLGWNNCGQPKEGKNHSQGCGEGQVACLFEDVVPMNYMVYFNFFACVLVPLLLMLGVYLRIFLAARRQLKQMEAQPLPGERARSTLQKEVHAAKSLAIIVGLFALCWLPLHIINCFTFFCPDCSHAPLWLMYLAIVLSHTNSVVNPFIYAYRIREFRQTFRKIIRSHVLRQQEPFKAAGTSARVLAAHGSDGEQVSLRLNGHPPGVWANGSAPHPERRPNGYALGLVSGGSAQESQGNTGLPDVELLSHELKGVCPEPPGLDDPLAQDGAGVS
# Legend:
# [1] = Thermostability assay of detergent-solubilised βAR34-424 and mutants expressed in E. coli ([3H]-DHA binding after heating 30 min); details: heated 30 min without ligand, then [3H]-DHA binding, DDM-solubilised, E. coli, mean ± S.E. from duplicates
# Method: To determine Tm in the absence of ligand (apo-state, discontinuous lines), detergent-solubilised receptors were incubated for 30 minutes at the temperatures indicated before carrying out the binding assay. […] Data points are from duplicates measurements in a representative experiment.
# Binding assays were performed using [^3H]-dihydroalprenolol (DHA) as radioligand as described under “Methods”. Samples were heated for 30 minutes at different temperatures before the assay. […] Data points are from duplicates of one single experiment. This experiment has been repeated several times with similar results.
# Expression of βAR and the mutants was performed in XL10 cells (Stratagene). Cultures of 50 ml of 2×TY medium containing ampicillin (100 μg/ml) were grown at 37° C. with shaking until OD600=3 and then induced with 0.4 mM IPTG. Induced cultures were incubated at 25° C. for 4 h and then cells were harvested by centrifugation at 13,000×g for 1 min (aliquots of 2 ml) and stored at −20° C. For the assays, cells were broken by freeze-thaw (five cycles), resuspended in 500 μl of buffer [20 mM Tris pH 8, 0.4 M NaCl, 1 mM EDTA and protease inhibitors (Complete™, Roche)]. After an incubation for 1 h at 4° C. with 100 μg/ml lysozyme and DNase I (Sigma), samples were solubilized with 2% DDM on ice for 30 minutes. Insoluble material was removed by centrifugation (15,000×g, 2 min, 4° C.) and the supernatant was used directly in radioligand binding assays.
# Single point binding assays contained 20 mM Tris pH 8, 0.4 M NaCl, 1 mM EDTA, 0.1% DDM (or corresponding detergent) with 50 nM [^3H]-DHA and 20-100 μg membrane protein in a final volume of 120 μl; equilibration was for 1 h at 4° C. Thermostability was assessed by incubating the binding assay mix, with or without [^3H]-DHA at the specified temperature for 30 minutes; reactions were placed on ice and [^3H]-DHA added as necessary and equilibrated for a further hour. […] Radioactivity was counted on a Beckman LS6000 liquid scintillation counter and data were analyzed by nonlinear regression using Prism software (GraphPad).
# [2] = Thermostability of solubilised adenosine A2a receptor and mutants (radioligand binding after or during heating); format: physicochemical; details: for thermostability assayed with 3H-ZM241385 (antagonist) / thermostability measured with 3H-NECA (agonist): Ligand(−) format, binding after the heating step
# Text: FIG. 12 Flow chart showing the two different assay formats of ligand (+) and ligand (−) used to determine receptor thermostablity.
# • 1. 315 site-directed mutants made between residues 2-316 of A2aR. • 2. All of these mutants have been assayed for thermostability using an assay measuring agonist and antagonist binding after the heating step (Ligand(−) format as described in FIG. 12). • a. […] Mutations have been combined to generate mutants in a putative antagonist conformation. Wildtype A2aR has a Tm of 31° C. with ZM241385 bound. • a. Rant17 A54L+K122A+L235A Tm 48° C. (ZM241385 bound) • b. Rant19 A54L,T88A,V239A+A204L Tm 47° C. (ZM241385 bound) • c. Rant21 A54L,T88A,V239A+K122A Tm 49° C. (ZM241385 bound) • 4. Mutations from the agonist screen have been combined, but have led to only a very low level of improvement in Tm of +2° C.
# [3] = 1% DDM (no glycerol), apo-state, S.D. <1° C.
# [4] = 1% DDM (no glycerol), ligand-occupied state, S.D. <1° C.
molecule,measurement,setting,value
"m18: βAR34-424 with R68S, M90V, Y227A, V230A, A282L, F327A, F338M",Tm (° C.),[1]; Table 2,49.6 °C
"m10-4: βAR34-424 with R68S, M90V, V230A, A334L",Tm (° C.),[1]; Table 1,46.9 ± 1.0 °C
B1,thermostability assayed with 3H-ZM241385 (antagonist),[2],improved thermostability
B2,Tm (° C.) − antagonist,[2]; [3],42 °C
same,Tm (° C.) + antagonist,[2]; [4],46 °C
B3,Tm (ZM241385 bound),[2],48 °C
B4,thermostability measured with 3H-NECA (agonist),[2],improved thermostability
B5,thermostability assayed with 3H-ZM241385 (antagonist),[2],improved thermostability
same,thermostability measured with 3H-NECA (agonist),[2],improved thermostability
B6,thermostability measured with 3H-NECA (agonist),[2],improved thermostability
B7,Tm (° C.) − agonist,[2]; [3],26 °C
same,Tm (° C.) + agonist,[2]; [4],34 °C
B8,Tm (ZM241385 bound),[2],47 °C
B9,thermostability measured with 3H-NECA (agonist),[2],improved thermostability
B10,thermostability measured with 3H-NECA (agonist),[2],improved thermostability
B11,thermostability measured with 3H-NECA (agonist),[2],improved thermostability
